Experimental data reported in article PMC12586598 (2025).

How the values were obtained:
Assay in all cases: SPR
K4 = target: K4
K3 = target: K3
linear peptide K1 = target: linear peptide K1
K2 = target: K2
[1] = target: long-acting C5a-blocking cyclic peptide drug Cp1 (head-tail cyclization of the linear peptide K1)

B1: mouse C5a protein (ligand)
chain: NLHLLRQKIEEQAAKYKHSVPKKCCYDGARVNFYETCEERVARVTIGPLCIRAFNECCTIANKIRKESPHKPVQLGR
**Q.** With B1 as the binder, how does the Kd (K4) read?
**A.** 2.38 µM

**Q.** What about the koff (K4) of the same binder?
**A.** 0.0299 s⁻¹

**Q.** What about the Kd (K3) of the same binder?
**A.** 7.12 µM

**Q.** What about the koff (K3) of the same binder?
**A.** 0.392 s⁻¹

**Q.** What about the Kd (linear peptide K1) of the same binder?
**A.** 2.85 µM

**Q.** What about the koff (linear peptide K1) of the same binder?
**A.** 0.00586 s⁻¹

**Q.** And the Kd (K2)?
**A.** 53.6 µM

**Q.** What about the koff (K2) of the same binder?
**A.** 0.00405 s⁻¹

**Q.** What about the Kd [1] of the same binder?
**A.** 5.63 µM

B2: mouse C5 (natural protein)
chain 1: QEQTYVISAPKILRVGSSENVVIQVHGYTEAFDATLSLKSYPDKKVTFSSGYVNLSPENKFQNAALLTLQPNQVPREESPVSHVYLEVVSKHFSKSKKIPITYNNGILFIHTDKPVYTPDQSVKIRVYSLGDDLKPAKRETVLTFIDPEGSEVDIVEENDYTGIISFPDFKIPSNPKYGVWTIKANYKKDFTTTGTAYFEIKEYVLPRFSVSIELERTFIGYKNFKNFEITVKARYFYNKVVPDAEVYAFFGLREDIKDEEKQMMHKATQAAKLVDGVAQISFDSETAVKELSYNSLEDLNNKYLYIAVTVTESSGGFSEEAEIPGVKYVLSPYTLNLVATPLFVKPGIPFSIKAQVKDSLEQAVGGVPVTLMAQTVDVNQETSDLETKRSITHDTDGVAVFVLNLPSNVTVLKFEIRTDDPELPEENQASKEYEAVAYSSLSQSYIYIAWTENYKPMLVGEYLNIMVTPKSPYIDKITHYNYLILSKGKIVQYGTREKLFSSTYQNINIPVTQNMVPSARLLVYYIVTGEQTAELVADAVWINIEEKCGNQLQVHLSPDEYVYSPGQTVSLDMVTEADSWVALSAVDRAVYKVQGNAKRAMQRVFQALDEKSDLGCGAGGGHDNADVFHLAGLTFLTNANADDSHYRDDSCKEIL
chain 2: NLHLLRQKIEEQAAKYKHSVPKKCCYDGARVNFYETCEERVARVTIGPLCIRAFNECCTIANKIRKESPHKPVQLGRIHIKTLLPVMKADIRSYFPESWLWEIHRVPKRKQLQVTLPDSLTTWEIQGIGISDNGICVADTLKAKVFKEVFLEMNIPYSVVRGEQIQLKGTVYNYMTSGTKFCVKMSAVEGICTSGSSAASLHTSRPSRCVFQRIEGSSSHLVTFTLLPLEIGLHSINFSLETSFGKDILVKTLRVVPEGVKRESYAGVILDPKGIRGIVNRRKEFPYRIPLDLVPKTKVERILSVKGLLVGEFLSTVLSKEGINILTHLPKGSAEAELMSIAPVFYVFHYLEAGNHWNIFYPDTLSKRQSLEKKIKQGVVSVMSYRNADYSYSMWKGASASTWLTAFALRVLGQVAKYVKQDENSICNSLLWLVEKCQLENGSFKENSQYLPIKLQGTLPAEAQEKTLYLTAFSVIGIRKAVDICPTMKIHTALDKADSFLLENTLPSKSTFTLAIVAYALSLGDRTHPRFRLIVSALRKEAFVKGDPPIYRYWRDTLKRPDSSVPSSGTAGMVETTAYALLASLKLKDMNYANPIIKWLSEEQRYGGGFYSTQDTINAIEGLTEYSLLLKQIHLDMDINVAYKHEGDFHKYKVTEKHFLGRPVEVSLNDDLVVSTGYSSGLATVYVKTVVHKISVSEEFCSFYLKIDTQDIEASSHFRLSDSGFKRIIACASYKPSKEESTSGSSHAVMDISLPTGIGANEEDLRALVEGVDQLLTDYQIKDGHVILQLNSIPSRDFLCVRFRIFELFQVGFLNPATFTVYEYHRPDKQCTMIYSISDTRLQKVCEGAACTCVEADCAQLQAEVDLAISADSRKEKACKPETAYAYKVRITSATEENVFVKYTATLLVTYKTGEAADENSEVTFIKKMSCTNANLVKGKQYLIMGKEVLQIKHNFSFKYIYPLDSSTWIEYWPTDTTCPSCQAFVENLNNFAEDLFLNSCE
**Q.** Which Kd [1] does the source give for B2 here?
**A.** 0.712 µM

**Q.** And the koff [1]?
**A.** 0.0745 s⁻¹

B3: human C5a protein (ligand)
chain: TLQKKIEEIAAKYKHSVVKKCCYDGACVNNDETCEQRAARISLGPRCIKAFTECCVVASQLRANISHKDMQLGR
**Q.** How did the Kd [1] turn out when B3 was run?
**A.** 7.41 µM

**Q.** And the koff [1]?
**A.** 0.395 s⁻¹

B4: mouse C5a-desArg (ligand)
chain: B1 chain
**Q.** Which Kd [1] does the source give for B4 here?
**A.** 3.58 µM
